{"source": "patent US12084521B2", "about": "“TLR9 inhibitors to suppress inflammatory response to pathogens” (University Of Maryland, Baltimore, priority 2018, dated 2024)", "key": {"TLR4 TIR-Cer": {"system": "TLR4 TIR-Cer", "assay": "FLIM/FRET control construct in HeLa cells", "type": "binding", "conditions": "peptide 40 μM", "protocol": "(§1) Three million HeLa cells were transfected with 10 μg of MyD88-Cer, TIRAP-Cer, TRAM-Cer, TLR2-Cer, TLR4 TIR-Cer, or TLR9 TIR-Cer expression vectors using a Lipofectamine™ 3000 kit from Invitrogen™ per manufacturer recommendations. Twenty four hours later, the transfected cells were trypsinized and reseeded into a 50-well gasket (Grace Bio-Labs™) mounted on a microscope slide at the density 8000 cells/well. The next day, cells were treated with Cy3-9R34-ΔN or Cy3-9R11 for 1 hour and fixed on the slides with a 4% paraformaldehyde solution.\n(§2) Fluorescence lifetime images were acquired using the Alba V FLIM™ system (ISS™ Inc.). The excitation was from the laser diode 443 nm coupled with scanning module (ISS™) through multiband dichroic filter 443/532/635 nm (Semrock™) to Olympus™ IX71S microscope with objective 20×0.45 NA (UPlan™ Olympus™). Emission was observed through bandpass filter […] (Chroma Technology™) and detected by a photomultiplier H7422-40 (Hamamatsu™). Measurements were performed using frequency domain (FD) and time domain (TD) modalities of the FLIM system. FD FLIM data were acquired using ISS™ A320 FastFLIM™ electronics with n harmonics of 20 MHz laser repetition frequency (n=1, 2, 3, 4, 5, 6). FastFLIM™ was calibrated using fluorescein in buffer pH 8.0 as a standard with a single lifetime of 4.0 ns. TD FLIM images were acquired using time-correlated single photon counting TCSPC™ Model SPC-830 (Becker & Hick™).\n(§3) Images (256×256 pixels) were acquired with resolution varied in the range ˜0.4-0.7 μm/pixel, using scan speed 1 ms/pixel. To avoid pixel intensity saturation in bright cells and to improve the signal from dim cells, two to five overlapping scans were used for acquisition of FLIM images. Image sizes varied from 100×100 to 180×180 μm to accommodate multiple cells. FLIM data were analyzed with VistaVision™ Suite software (Vista™ v.212 from ISST). Fluorescence lifetime was determined using single- and bi-exponential intensity decay models. Average lifetime images were generated based on pixel-by-pixel analysis using the combined signal of two neighboring pixels in all directions (bin 2=25 pixels). The binning was used to improve the signal for analysis. The average lifetimes were calculated from fitted parameters, decay times τi and amplitudes αi, τa=Σαiτi. The bi-exponential fitting procedure was performed with one lifetime component fixed at 3.1 nsec, which was found common for most images. To calculate the effective FRET efficiency (E), average lifetimes of the donor only images (τD) and donor-acceptor images (τDA) were used, E=1−τDA/τD.\n(§4) TLR9, MyD88, and TIRAP were selected as potential primary binding partners for Cy3-9R34-ΔN and Cy3-9R11. Cer-fused TLR2 and TLR4 TIR domains, and Cer not fused to a TIR, were used as controls. […] Therefore, the TIRAP-Cer with Cy3-2R9 was used as a positive binding control. Binding of Cy3-labeled CPDPs to Cerulean- (Cer-) labeled TIR domains was tested as follows. Fluorescence Lifetime IMages (FLIM) were made of HeLa cells expressing Cer not fused with a TIR domain (upper row) or fused with TLR9 TIR or TIRAP TIR (middle and bottom rows) and treated with a Cy3-labeled decoy peptide for 1 hour."}, "[1]": {"system": "Cer not fused to a TIR domain", "assay": "FLIM/FRET control construct in HeLa cells", "type": "binding", "conditions": "peptide 40 μM", "protocol": "as §1, §2, §3, §4"}, "TLR2 TIR-Cer": {"biological_target": "T1, TLR2 TIR-Cer (Homo sapiens, UniProt O60603)", "T1 construct": "Cer-fused TLR2 and TLR4 TIR domains; expressed in transfected cells; host or cells: HeLa", "T1 sequence (O60603 639-782 limits assumed)": "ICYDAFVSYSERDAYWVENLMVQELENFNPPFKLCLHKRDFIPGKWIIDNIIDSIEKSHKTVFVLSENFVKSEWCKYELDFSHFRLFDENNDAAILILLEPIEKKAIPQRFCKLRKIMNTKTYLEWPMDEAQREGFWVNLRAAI", "assay": "FLIM/FRET control construct in HeLa cells", "type": "binding", "conditions": "peptide 40 μM", "protocol": "as §1, §2, §3, §4"}, "TRAM-Cer": {"biological_target": "T2, TRAM-Cer (Homo sapiens, UniProt Q86XR7)", "T2 construct": "expressed in transfected cells; host or cells: HeLa", "T2 sequence (Q86XR7 whole entry)": "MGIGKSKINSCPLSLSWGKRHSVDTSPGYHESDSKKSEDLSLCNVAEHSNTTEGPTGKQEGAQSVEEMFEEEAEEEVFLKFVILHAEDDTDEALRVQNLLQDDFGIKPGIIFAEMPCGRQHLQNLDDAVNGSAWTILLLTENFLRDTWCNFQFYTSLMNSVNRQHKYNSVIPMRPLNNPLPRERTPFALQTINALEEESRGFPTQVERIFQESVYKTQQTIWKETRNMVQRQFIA", "assay": "FLIM/FRET control construct in HeLa cells", "type": "binding", "conditions": "peptide 40 μM", "protocol": "as §1, §2, §3, §4"}, "MyD88 TIR": {"biological_target": "T3, MyD88 TIR (Homo sapiens, UniProt Q99836)", "T3 construct": "expressed in transfected cells; host or cells: HeLa", "T3 sequence (Q99836 159-293 limits assumed)": "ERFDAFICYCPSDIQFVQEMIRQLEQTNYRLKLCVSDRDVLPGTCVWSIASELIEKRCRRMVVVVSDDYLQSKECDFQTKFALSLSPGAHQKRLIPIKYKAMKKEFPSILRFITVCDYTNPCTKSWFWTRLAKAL", "assay": "FLIM/FRET binding of Cy3-labeled peptides to Cer-fused TIR in HeLa cells", "protocol": "as §1, §2, §3\n(§5) To identify potential binding partners of inhibitory peptides a FRET approach coupled with Fluorescence Lifetime Imaging Microscopy (FLIM) was used. HeLa cells were transiently transfected with an expression vector that encodes a TIR domain fused with Cerulean fluorescent protein (Cer). Cells were treated with various concentrations of a Cy3-labeled inhibitory peptide 48 hours after transfection. Cy3 is a suitable FRET acceptor for Cer fluorescence. A direct molecular interaction of a Cy3-labeled peptide with Cer-fused TIR domain should quench Cer fluorescence, leading to a decreased fluorescence lifetime.\nas §4\n(§6) A progressive shift of average fluorescence lifetime towards lower values observed with increasing peptide concentrations indicates the binding between donor and acceptor moieties. […]"}, "TIRAP TIR": {"biological_target": "T4, TIRAP TIR (Homo sapiens, UniProt P58753)", "T4 construct": "fused with TLR9 TIR or TIRAP TIR; expressed in transfected cells; host or cells: HeLa", "T4 sequence (P58753 84-213 limits assumed)": "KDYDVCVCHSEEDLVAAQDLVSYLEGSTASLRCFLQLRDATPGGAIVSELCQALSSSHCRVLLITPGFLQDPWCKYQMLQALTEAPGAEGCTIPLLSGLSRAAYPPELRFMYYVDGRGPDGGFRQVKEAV", "assay": "FLIM/FRET binding of Cy3-labeled peptides to Cer-fused TIR in HeLa cells", "protocol": "as §1, §2, §3, §5, §4, §6"}, "TLR9 TIR": {"biological_target": "T5, TLR9 TIR (Homo sapiens, UniProt Q9NR96)", "T5 construct": "expressed in transfected cells; host or cells: HeLa", "T5 sequence (Q9NR96 868-1013 limits assumed)": "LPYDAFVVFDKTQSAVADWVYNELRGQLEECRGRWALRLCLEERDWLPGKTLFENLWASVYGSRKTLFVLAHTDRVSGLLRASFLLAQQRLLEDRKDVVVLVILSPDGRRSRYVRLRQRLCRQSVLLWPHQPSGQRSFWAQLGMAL", "assay": "FLIM/FRET binding of Cy3-labeled peptides to Cer-fused TIR in HeLa cells", "protocol": "as §1, §2, §3, §5, §4, §6"}}, "note": "No end group written: not given here. Cy3 = Cy3 fluorescent dye label"}
{"substance": "Cy3-9R34-ΔN: Cy3-labeled 9R34-ΔN peptide, Cy3 label placed at the peptide N-terminus (Cy3-RQIKIWFQNRRMKWKKALRLCLEERD)", "values": [{"measurement": "fluorescence lifetime of control TLR4 TIR-Cer", "setting": "TLR4 TIR-Cer", "result": "slightly affected"}, {"measurement": "fluorescence lifetime of Cer not fused to a TIR domain (unspecific quenching)", "setting": "[1]", "result": "slightly affected"}, {"measurement": "fluorescence lifetime of control TLR2 TIR-Cer", "setting": "TLR2 TIR-Cer", "result": "slightly affected"}, {"measurement": "fluorescence lifetime of control TRAM-Cer", "setting": "TRAM-Cer", "result": "slightly affected"}, {"measurement": "quenching of MyD88 TIR-Cer", "setting": "MyD88 TIR; peptide 40 μM, considerably less than on TLR9 and TIRAP TIR-Cer", "result": "notable"}, {"measurement": "average fluorescence lifetime of Cer-labeled MyD88 TIR", "setting": "MyD88 TIR; peptide 2.5 and 10 μM", "result": "not affected"}, {"measurement": "effect on TIRAP-Cer fluorescence at the lowest peptide concentration", "setting": "TIRAP TIR; 2.5 μM", "result": "absence of the effect"}, {"measurement": "quenching of TIRAP-Cer fluorescence", "setting": "TIRAP TIR; HeLa cells, Cy3-peptide 2.5-40 μM, 1 hour", "result": "notably quenched"}, {"measurement": "FRET efficiency, TLR9 TIR-Cer", "setting": "TLR9 TIR; HeLa cells, Cy3-peptide 2.5-40 μM, 1 hour, dose-dependent", "result": "9-23%"}, {"measurement": "fluorescence lifetime of TLR9 TIR-Cer construct", "setting": "TLR9 TIR; minimal peptide concentration 2.5 μM", "result": "decreased"}]}
